Experimental findings from patent US20210101970A1 (Pfizer, published 2021) are described below.

The target of assay [1] is T1, human CXCR5 (human, UniProt P32302 1-372).
T1 construct: also called hCXCR5; C-X-C chemokine receptor type 5
T1 sequence: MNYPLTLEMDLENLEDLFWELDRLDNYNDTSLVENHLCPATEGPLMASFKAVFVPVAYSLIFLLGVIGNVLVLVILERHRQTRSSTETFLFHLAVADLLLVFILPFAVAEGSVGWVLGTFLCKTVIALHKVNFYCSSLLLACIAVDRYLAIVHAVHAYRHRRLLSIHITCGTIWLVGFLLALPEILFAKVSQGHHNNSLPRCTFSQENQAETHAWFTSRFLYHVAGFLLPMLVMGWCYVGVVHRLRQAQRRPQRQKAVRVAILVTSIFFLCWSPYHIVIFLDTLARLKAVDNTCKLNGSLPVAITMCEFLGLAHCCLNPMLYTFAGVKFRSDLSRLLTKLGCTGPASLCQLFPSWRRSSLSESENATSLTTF
Nature of the assay: flow cytometry on Raji cells, gMFI titration. On the procedure:
The apparent affinity of antibody binding to Raji cells was calculated as the EC₅₀ of equilibrium binding titration curves in which the geometric mean fluorescence intensity (gMFI) of the antigen binding population was quantified by flow cytometry and the results are shown in Table 2.
Background: A flow cytometer gives signals particle by particle.

Assay [2] has as its target T1, human CXCR5. Nature of the assay: cell-based or functional assay.
The target in another assay is T2, XC276 (human, UniProt P32302 2-372).
T2 construct: also called hCXCR5 D10G
T2 sequence: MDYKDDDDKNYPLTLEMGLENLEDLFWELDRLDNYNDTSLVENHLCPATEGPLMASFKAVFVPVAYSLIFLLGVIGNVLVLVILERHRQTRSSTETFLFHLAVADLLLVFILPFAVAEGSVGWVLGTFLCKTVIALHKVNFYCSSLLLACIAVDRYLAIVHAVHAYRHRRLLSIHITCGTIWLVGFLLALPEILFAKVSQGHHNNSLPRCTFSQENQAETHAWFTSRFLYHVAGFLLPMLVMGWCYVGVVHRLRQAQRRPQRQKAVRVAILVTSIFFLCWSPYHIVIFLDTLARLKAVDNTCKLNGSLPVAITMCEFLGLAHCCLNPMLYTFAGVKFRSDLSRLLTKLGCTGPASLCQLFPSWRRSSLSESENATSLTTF
The experiment in a line: flow cytometry on HEK-293T cells transiently expressing the FLAG-tagged mutein; ratio of gMFI of the antibody to gMFI of anti-FLAG PE. On the procedure: (§1) The cells were analyzed by flow cytometry using an Accuri (BD Biosciences Franklin Lakes, N.J.). The geometric mean fluorescence intensity (gMFI) was determined and the ratio for the gMFI of each CXCR5 antibody and anti-flag was calculated.

The next assay concerns the target T3, XC277 (human, UniProt P32302 2-372).
T3 construct: also called hCXCR5 SI(insertion)
T3 sequence: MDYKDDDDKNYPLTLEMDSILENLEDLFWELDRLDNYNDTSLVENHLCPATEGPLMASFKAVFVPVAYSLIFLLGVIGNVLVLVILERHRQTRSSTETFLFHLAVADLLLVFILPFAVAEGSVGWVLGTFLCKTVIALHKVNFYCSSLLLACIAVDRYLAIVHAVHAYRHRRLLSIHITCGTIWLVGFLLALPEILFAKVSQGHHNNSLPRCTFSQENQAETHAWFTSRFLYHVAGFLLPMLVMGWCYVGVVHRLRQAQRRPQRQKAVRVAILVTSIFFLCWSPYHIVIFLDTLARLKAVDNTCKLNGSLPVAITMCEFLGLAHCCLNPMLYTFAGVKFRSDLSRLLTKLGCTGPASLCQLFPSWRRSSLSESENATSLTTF
Described as above. The protocol:
as §1

The target of the next assay is T4, CXCR4 (human, UniProt P61073 1-352).
T4 construct: whole, on cells
T4 sequence (P61073 whole entry): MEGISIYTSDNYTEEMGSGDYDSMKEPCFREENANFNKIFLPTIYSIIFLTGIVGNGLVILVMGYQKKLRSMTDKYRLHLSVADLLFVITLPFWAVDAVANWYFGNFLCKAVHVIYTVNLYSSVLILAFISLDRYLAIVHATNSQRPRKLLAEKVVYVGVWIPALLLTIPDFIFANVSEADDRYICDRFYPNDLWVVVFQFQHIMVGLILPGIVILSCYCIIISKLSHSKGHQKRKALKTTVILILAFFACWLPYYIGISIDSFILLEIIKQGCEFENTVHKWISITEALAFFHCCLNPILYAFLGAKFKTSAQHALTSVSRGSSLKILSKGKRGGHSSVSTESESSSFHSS
Nature of the assay: flow cytometry (GMFI) on Jurkat cells, which express CXCR4; chimeric antibody, goat anti-human PE. The protocol: To determine the specificity of the antibodies for CXCR5, the binding of the antibodies to cells expressing other […] was assessed. Briefly, FlowCellect chemokine receptor cell lines expressing CXCR1, CXCR2, or CXCR3 (EMD Millipore, Billerica, Mass.), and Jurkats (ATCC, Manassas, Va.), which express CXCR4, were stained with 5 μg/ml or 10 μg/ml of each anti-CXCR5 chimeric antibody. The cells were then incubated with goat anti-human conjugated with PE (Southern Biotech, Birmingham, Ala.) prior to analysis by flow cytometry using a FACSVerse Analyzer (BD Biosciences, Franklin Lakes, N.J.).

The target in assay [3] is T1, human CXCR5. Nature of the assay: cell-based or functional assay. This is another data set of the same source.
Another assay deals with T5, rabbit CXCR5 ortholog (rabbit, UniProt G1TNG1 1-374).
T5 sequence: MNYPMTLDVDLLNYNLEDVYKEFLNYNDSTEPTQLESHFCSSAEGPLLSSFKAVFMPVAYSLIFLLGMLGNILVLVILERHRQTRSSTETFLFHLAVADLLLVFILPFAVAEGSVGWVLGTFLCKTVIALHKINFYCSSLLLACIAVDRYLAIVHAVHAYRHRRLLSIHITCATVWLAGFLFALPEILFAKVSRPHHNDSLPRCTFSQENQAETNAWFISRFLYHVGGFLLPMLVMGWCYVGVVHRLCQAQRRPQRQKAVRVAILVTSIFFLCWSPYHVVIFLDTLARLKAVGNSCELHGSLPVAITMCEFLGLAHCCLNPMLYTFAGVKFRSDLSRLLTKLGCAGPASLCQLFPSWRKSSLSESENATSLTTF
Nature of the assay: not described.

The target in assay [4] is T1, human CXCR5. The experiment in a line: flow cytometry, B cells from human PBMCs (FIG. 5); afucosylated.

In general, EC50 refers to the concentration that produces a half-maximal response.

B1: 2C9 (reference antibody) (antibody, human IgG1, kappa, V domains shown)
VH: EVQLVESGGGLVKPGGSLRLSCAASGFTFSTNAMNWVRQAPGKGLERVARIRSKSNNYATYYADSVKDRFTISRDDSKNTLYLQMNSLKTEDTAVYYCVTMIPFAYWGQGTLVTVSS
VL: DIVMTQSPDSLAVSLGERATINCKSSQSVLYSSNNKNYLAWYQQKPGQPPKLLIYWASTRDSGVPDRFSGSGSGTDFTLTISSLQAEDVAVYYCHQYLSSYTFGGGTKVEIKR
notes: fucosylated
Molecule B1 gave an EC50 with human CXCR5 [1] of 210 pM. Moreover, the “% Inhibition CXCL13” value with human CXCR5 [2] was 114%. For the same molecule, the “EC50, stimulation of CXCL13-inhibited cAMP production” value in the assay with human CXCR5 [2] came to 793 pM. The binding result with XC276 and with XC277 was “no binding (tested: 1 or 3 µg/ml (not on the sheet))” throughout.

B2: Chimeric 11G2 (antibody, human IgG1, kappa, V domains shown)
VH: EVKLVESGGGLVQPGGSLRLSCATSGFTFTDFYMSWVRQPPGRALEWLGFIRNKANGYTTEYSASVKGRFTISRDNSQSILYLQMNTLRAGDSATYYCVRVYGSTLHYWGQGTILTVSS
VL: DVVVTQSPDSLAVSLGQRATISCRASESVEYHGTSLMHWYQQKPGQPPKLLIYAASNVESGVPARFSGSGSGTDFSLNIHPVEEGDIAMYFCQQSRKVPWTFGGGTKLEIKR
notes: mouse V regions on human IgG1/kappa; also called 11G2 (chimeric)
Turning to B2, the binding result in the assay with CXCR4 is “no binding (tested: 5 or 10 µg/ml (not on the sheet))”.

B3: Afucosyl humanized 11G2 154/155 (antibody, human IgG1, kappa, V domains shown)
VH: EVQLVESGGGLVQPGGSLRLSCAASGFTFTDFYMSWVRQAPGKGLEWVGFIRNKANGYTTEYSASVKGRFTISRDNAKNSLYLQMNSLRAEDTAVYYCARVYGSTLHYWGQGTLVTVSS
VL: DIQMTQSPSSLSASVGDRVTITCRASESVEYHGTSLMHWYQQKPGKAPKLLIYAASNVESGVPSRFSGSGSGTDFTLTISSLQPEDFATYYCQQSRKVPWTFGQGTKVEIKR
modifications: afucosylated Fc glycan (Asn297)
notes: also called afucosyl h11G2 XC154/XC155; afucosylated h11G2 VL XC154/VH XC155
In the case of B3, the “ADCC (EC50, pM)” value with human CXCR5 [3] is 2.38 pM. Besides, the binding result with rabbit CXCR5 ortholog is “no binding”. The concentration for a half-maximal effect (EC50) with human CXCR5 [4] stood at 11.9 pM.
